T1: His::ABI5 (Oryza sativa (rice), UniProt Q8RZ35 1-388)
T1 sequence: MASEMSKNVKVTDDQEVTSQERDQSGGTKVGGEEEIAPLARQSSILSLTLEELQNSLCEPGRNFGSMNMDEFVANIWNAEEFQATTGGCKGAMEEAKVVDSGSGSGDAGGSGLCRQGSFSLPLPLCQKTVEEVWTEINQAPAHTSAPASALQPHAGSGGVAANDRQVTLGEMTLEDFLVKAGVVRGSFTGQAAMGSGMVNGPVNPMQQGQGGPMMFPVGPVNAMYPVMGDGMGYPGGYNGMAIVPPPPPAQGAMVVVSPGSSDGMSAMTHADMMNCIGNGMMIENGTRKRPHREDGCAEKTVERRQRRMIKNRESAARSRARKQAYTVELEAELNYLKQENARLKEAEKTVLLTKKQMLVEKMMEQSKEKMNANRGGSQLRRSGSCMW


Molecular target: T1, His::ABI5
Experiment: EMSA; Beyotime Chemiluminescent EMSA Kit; 2 ug His::ABI5, 1 uL biotin probe (1 ng), 25 C, 20 min; unlabeled probe (1 ng) as competitor; buffer, salt and pH not stated
Details: protein: recombinant; tags: His (pET28a); chain copies: 2; label: biotin; blunt

Binder	binding result
EMSA-EM1-bio (dsDNA) DNA 1: CATAGCTTGCGCACGTACGTGTCGCGCTCCGGCGG DNA 2: CCGCCGGAGCGCGACACGTACGTGCGCAAGCTATG	binds
EMSA-LEA3-bio (dsDNA) DNA 1: GATGACTTGGCATGCTCACGTGGCATTTTTTTTGGTCTAA DNA 2: TTAGACCAAAAAAAATGCCACGTGAGCATGCCAAGTCATC	binds
